{
  "source": "paper PMC2156174",
  "target": "endogenous Tom40 (N. crassa (endogenous in isolated mitochondria)) (UniProt P24391)",
  "experiment": "cross-linking",
  "data": [
    {"substance": "endogenous Tom40 (from UniProt P24391 1-349) (natural protein)", "values": [
      {"measurement": "stoichiometry N", "result": 2}
    ]}
  ]
}
